The values that follow come from the DeepSol protein solubility set.

The data set can be described thus: soluble on expression in E. coli; label from the status in PepcDB or PDB records.
With “MSLITCSKCSRRAVIFQRHANRHLCKRHFIEDFERRVKLAVKKYDMIQKGDRIAIALSGGKDSVTLAFVLNKLYGFRSDLEFFAITIDEGIAGYRPPTVEIARKVTEQLGMEHLVVSFEENFGMTLDEMVKRGDKKPCTYCGVFRKYLLNRTAREMGATKLATGHNLDDETQTILLNFLNADMERMARLVPQRVQEGLVVRIKPFRYVYEKEVVVYGFLHELPMDFDECPYSHFPVRAAVRDFLYDFENKYPGRKFSVMSSFEKLIPCLKEIYPQIDLNRCERCGEPTPRRICQACKLLEELRGVDEGHHHHHH”, the “soluble on expression in E. coli” value is recorded as “not soluble”.
For “MRSYAIGDIHGHLSLLQEIHGRIAADRARTGDDEAPVVHIGDLVDRGPDSRGVVEYLRQGIEQGENWVVLKGNHDRMFAGFLRDPAHQDPGLRGDLSWLHPRLGGGPTLESYGVAHAADRPVAIVHREAVALVPAEHVAFIEALPAVYRRDEALFVHAGIRPGVPLAEQIEDDLVWIREPFLSDPRDHGMLVVHGHTAIDAVTHYGNRLNLDSGAAYGGPLSAVVIEGRSVWQLGPEGRRPIALEHHHHHH”, the “soluble on expression in E. coli” value is recorded as “not soluble”.
Next, “MGHHHHHHGGHMSLTVPDFQAFMRPMLEQISSGEPQKIAELYRRLAEFFALTPQDTEELLPSGKQAKYHNRILWAKFHLDRAGVLTTPSRGVVQITPLGREFLSRYPEHIGMRELQTIPAYAEFTRRSRSPAQSPAPAAPPQAECSASVPPAEQIDALYAELTANLAEELLAQVKELSPAQFERLVVEVLVAMGYGGSVRDAGQALGRSGDNGIDGLIKQDPLGLDRIYLQAKRWKNTVHSPEIRTFSGSLTYHKATKGVFITTSGFSDGAKATAGQIGNIILLDGETLAHLMIEYGVGVLTRETYQIRRLDADYFEELEGGS”: “soluble”; “MGSDKIHHHHHHMTVRTRVTDLLEIEHPILMGGMAWAGTPTLAAAVSEAGGLGIIGSGAMKPDDLRKAISELRQKTDKPFGVNIILVSPWADDLVKVCIEEKVPVVTFGAGNPTKYIRELKENGTKVIPVVASDSLARMVERAGADAVIAEGMESGGHIGEVTTFVLVNKVSRSVNIPVIAAGGIADGRGMAAAFALGAEAVQMGTRFVASVESDVHPVYKEKIVKASIRDTVVTGAKLGHPARVLRTPFARKIQEMEFENPMQAEEMLVGSLRRAVVEGDLERGSFMVGQSAGLIDEIKPVKQIIEDILKEFKETVEKLRGYIEE”: “soluble”.
Next, “MGSDKIHHHHHHVLTNQTGYEYHKCTDLTAMIKDYIDNWQKNNAHFDGIYSGFMTGSKQIELFMDFLDVFYEKNTMLLVDPVMGDDGRTYGIYSAALLDGMKALSRKADVITPNLTEACLLADYDIEKVYSDTRKDVLLPIAAEISEKLRCLSGKNQDVIITGIKCRDDKSPFIYNLVTTANGTTTHRSHFFDVSFSGTGDLFASVICGSRLNGFSTEEAAERAGKFLYDSIADTMNDDTAPNDGVNFEKFLRELM”: “not soluble”; “QVQLQQSGAELVKPGASVRMSCKASGYTFTNYNMYWVKQSPGQGLEWIGIFYPGNGDTSYNQKFKDKATLTADKSSNTAYMQLSSLTSEDSAVYYCARSGGSYRYDGGFDYWGQGTTVTVSS”: “soluble”.
As to “MSLNDRNASKMLSTYNVAYWGGNYYDVNELGHISVCPDPDIREARVDLAQLVKKMQLEQGQRLPALFCFPQILQHRLRSINAAFKRARESFGYEGGYFLVYPIKVNQHRRVIESLVNSGEPLGLEAGSKAEMMAVLAHAGMTRSVIVCNGYKDREYIRLALIGEKLGHKVYLVIEKMSEIKMVLEEAERLNVVPRLGVRARLASQGSGKWQASGGEKSKFGLSATQVLQLVDMLREANSLESLQLLHFHLGSQLSNIRDISTGVRESARFYVELHKLGVNIQCFDVGGGLGVDYEGTRSQSDCSVNYGLNEYANNVIWGIGDACNEHGLPHPTVITESGRAVTAHHTVLVSNVIGVERNEFCEPQPPEAGAPRALESLWDTWQEMQEPENRRSLREWLHDSQMDLHDVHTQYAHGMLDLTHRAWAEQLYLSICNEIQKQLDPSNRAHRPIIDELQERMADKLYVNFSLFQSMPDAWGIDQLFPVLPLEGLDKPPERRAVLLDITCDSDGTIDHYIDGDGVATTMPMPPYDPENPPLLGFFMVGAYQEILGNMHNLFGDTAAVDVYVFPDGTVEVEQTDEGDTVADMLEYVQLNPEKLLEHFRGQVKETDLDTELQAQFLEEFEAGLYGYTYLEDEGHHHHHH”, the “soluble on expression in E. coli” value is reported as “soluble”.
Consider “AKDDKVTVLSIERGNKLVYLEKLGLRGDQFYYKIERIRESNGVVYIYHTSYIPEQYINANYPNLEYYSSIYNRFKLDYHIHMNDEHFEEINEIVFPTPEHAASVLGVDEQFPTVLQTKITKLESTGQVLEYSETYKRSDYYKIKFISCDRDH”, for which the “soluble on expression in E. coli” value is reported as “not soluble”.
Next, “MSLSRKWLNKVKWDDHGLVPVIVQEQGSNDVLMFAFMNREALQKTVETGEAVFWSRSRKRLWHKGEESGHIQQVHEIRLDCDEDVVLLRVTQVGGIACHTGRHACFFQKFEGTAEDGDWHTVEPVLKNPDDIYAGKPGHNHEEGHHHHHH”: “not soluble”; “MLGKLPQQANDYLNSFNWERQVSHAKEKLTALTKKYRITENDIQIALDDAKINFNEKLSQLQTYMI”: “not soluble”; “NRYQDLEKQVITTGNSIIEPLAIASESHLLAESREAVRRLISYAHRKNSKLVRSIAVFDEHHELFVTSNFHPNFEALMFPKDKPIPKLGNSEIYENSLILRVPILSEGHYLSELSNENQGTKAIGYIAVEMDLSSLRLQQYQE”: “not soluble”.
For “MSSVAVLTQESFAEHRSGLVPQQIKVATLNSEEESDPPTYKDAFPPLPEKAACLESAQEPAGAWGNKIRPIKASVITQVFHVPLEERKYKDMNQFGEGEQAKICLEIMQRTGAHLELSLAKDQGLSIMVSGKLDAVMKARKDIVARLQTQASATVAIPKEHHRFVIGKNGEKLQDLELKTATKIQIPRPDDPSNQIKITGTKEGIEKARHEVLLISAEQDKRAVERLEVEKAFHPFIAGPYNRLVGEIMQETGTRINIPPPSVNRTEIVFTGEKEQLAQAVARIKKIYEEKKKKTTTIAVEVKKSQHKYVIGPKGNSLQEILERTGVSVEIPPSDSISETVILRGEPEKLGQALTEVYAKANSFTVSSVAAPSWLHRFIIGKKGQNLAKITQQMPKVHIEFTEGEDKITLEGPTEDVSVAQEQIEGMVKDLINRMDYVEINIDHKFHRHLIGKSGANINRIKDQYKVSVRIPPDSEKSNLIRIEGDPQGVQQAKRELLELASRMENERTKDLIIEQRFHRTIIGQKGERIREIRDKFPEVIINFPDPAQKSDIVQLRGPKNEVEKCTKYMQKMVADLVENSYSISVPIFKQFHKNIIGKGGANIKKIREESNTKIDLPAENSNSETIIITGKRANCEAARSRILSIQKDLANIAEVEVSIPAKLHNSLIGTKGRLIRSIMEECGGVHIHFPVEGSGSDTVVIRGPSSDVEKAKKQLLHLAEEKQTKSFTVDIRAKPEYHKFLIGKGGGKIRKVRDSTGARVIFPAAEDKDQDLITIIGKEDAVREAQKELEALIQNLDNVVEDSMLVDPKHHRHFVIRRGQVLREIAEEYGGVMVSFPRSGTQSDKVTLKGAKDCVEAAKKRIQEIIEDLEAQVTLECAIPQKFHRSVMGPKGSRIQQITRDFSVQIKFPDREENAVHSTEPVVQENGDEAGEGREAKDCDPGSPRRCDIIIISGRKEKCEAAKEALEALVPVTIEVEVPFDLHRYVIGQKGSGIRKMMDEFEVNIHVPAPELQSDIIAITGLAANLDRAKAGLLERVKELQAEQEDRALRSFKLSVTVDPKYHPKIIGRKGAVITQIRLEHDVNIQFPDKDDGNQPQDQITITGYEKNTEAARDAILRIVGELEQMVSEDVPLDHRVHARIIGARGKAIRKIMDEFKVDIRFPQSGAPDPNCVTVTGLPENVEEAIDHILNLEEEYLADVVDSEALQVYMKPPAHEEAKAPSRGFVVRDAPWTASSSEKAPDMSSSEEFPSFGAQVAPKTLPWGPKR”, the “soluble on expression in E. coli” value is given as “soluble”.
Next, “MRKVKTDNSDLIEYVNTVKELKNHIPIEEYRNEYRKLRSDDIPLVKAQKFKSAHTEVRRLEKKRESLIEYFIDELNPISSSKANTSARSTGNLDLFNERVLYRKAISEKSDEEIVALVIKQRTEAAVEFQRSIEQSLEQLSRISSEFEPSNQKRRKMSL”: “soluble”; “MARARARPGAVMSISGGLVRRRAEGRPLPAASAMSTVTLHRVLRASPERVYRAFLDAAALSKWLPPHGFTNTVEHLDARVGGTFRMAFTQFGSGQRHAFGGTYRELVPNALLRYDDVFDDPSLPGTLLTTVRLLPLPCGTDLHVVQEGIPEQIPLHACYLGWQESLTLLALLVEAQRAELEHHHHHH”: “not soluble”.
With “MKKRLTESQFQEAIQGLEVGQQTIEIARGVLVDGKPQATFATSLGLTRGAVSQAVHRVWAAFEDKNLPEGYARVTAVLPEHQAYIVRKWEADAKKKQETKR” the entry was “soluble”; with “RKYAFEDVFRVGREDVNEMADRILNSLSSYKPRVGCIAFSGGVDSSLLAALYDAPLVSVTASDAEEEWLKTAARMLGKEIEILKVGESAIREVVDTVRKTIETGDFLQLSIAVPVYLTMQFAKSLGFTEIIFGQGADELFGGYKRYEGLSEHELEDALVKDLKSIGESNLVRDCKLAYKNEIKLVTPYLCWDVIDAALKIPPEYKVRREGGKVVRKYILRKIAEKFLPEEIAWRDKKAIQYSTGIAKI”, “not soluble”; with “MGSDKIHHHHHHMKTSPRSNRLHIALFGKRNSGKSSLINALTNQNAALVSDIAGTTTDPVYQPMEIHGIGPCVFIDTAGFDDEGELGSLRIERTLQAADKADIALMVCCDTELSEEQRWIELLKERNIPYLLVLNKADLLEKPDEVADKLEQQTGQHPLIVSAKEKTGIDSIRQSILHRLPELNEQPDIVGDLANEGDVVLLVMPQDIQAPKGRLILPQVQTLRELLDKKCITLSCTTDQLDNALKALSVPPSLIITDSQVFRTVYEKKPPQSRLTSFSVLFARYKGDIDYYTEGAYIIDQLTENSRVLIAEACTHAPLSEDIGRVKLPRMLRKRIGEKLHIDIVSGNDFPKDLNCYDLIIHCGACMFNRKHVLNRIVKAKAQGVPMTNYGIVIAYINGIPFH”, “not soluble”.
With “MQIAREETRKSGANILYVINHQRPSIFGSSMHQIGGLMLLSDSVVRNEGEGYPDSLLYDSGQRGKIGSRIKAPVHDLSFHFGPSTITNRTKGLSYSEQQLEKKLSNGLSFVLQYKCHPKGNLYGFGLIASRYEADITKKIEYQGIGFANRLDYIAPLFSMSTALSERWFLGMSFGKDGSQSVRLHYRFARLPVDRDLSAVGCVRKKSPHTDDCRLTVSPLYRPS” the entry was “not soluble”.
In the case of “MIVVSGSQSQNLAFKVAKLLNTKLTRVEYKRFPDNEIYVRIVDEINDDEAVIINTQKNQNDAIVETILLCDALRDEGVKKITLVAPYLAYARQDKKFNPGEAISIRALAKIYSNIVDKLITINPHETHIKDFFTIPFIYGDAVPKLAEYVKDKLNDPIVLAPDKGALEFAKTASKILNAEYDYLEKTRLSPTEIQIAPKTLDAKDRDVFIVDDIISTGGTMATAVKLLKEQGAKKIIAACVHPVLIGDALNKLYSAGVEEVVGTDTYLSEVSKVSVAEVIVDLL”, the “soluble on expression in E. coli” value is reported as “soluble”.
Consider “MDSKQQCVKLNDGHFMPVLGFGTYAPPEVPRSKALEVTKLAIEAGFRHIDSAHLYNNEEQVGLAIRSKIADGSVKREDIFYTSKLWSTFHRPELVRPALENSLKKAQLDYVDLYLIHSPMSLKPGEELSPTDENGKVIFDIVDLCTTWEAMEKCKDAGLAKSIGVSNFNRRQLEMILNKPGLKYKPVCNQVECHPYFNRSKLLDFCKSKDIVLVAYSALGSQRDKRWVDPNSPVLLEDPVLCALAKKHKRTPALIALRYQLQRGVVVLAKSYNEQRIRQNVQVFEFQLTAEDMKAIDGLDRNLHYFNSDSFASHPNYPYSDEYLEHHHHHH”, for which the “soluble on expression in E. coli” value is given as “soluble”.
